Positions of bridges follow the written chain, without caps; N, C: chain ends. Non-standard residues stand in square brackets, D forms with d. *: point of attachment. Pyrrolidide = C1CCN(*)C1; dNMeA = CN[C@H](C)C(=O)O
T1: full-length human Regnase-1 with a FLAG tag on the N-terminal side and a biotin ligase BirA recognition … (human, UniProt Q5D1E8 1-599, biotinylated at the BirA recognition sequence when required)
T1 sequence: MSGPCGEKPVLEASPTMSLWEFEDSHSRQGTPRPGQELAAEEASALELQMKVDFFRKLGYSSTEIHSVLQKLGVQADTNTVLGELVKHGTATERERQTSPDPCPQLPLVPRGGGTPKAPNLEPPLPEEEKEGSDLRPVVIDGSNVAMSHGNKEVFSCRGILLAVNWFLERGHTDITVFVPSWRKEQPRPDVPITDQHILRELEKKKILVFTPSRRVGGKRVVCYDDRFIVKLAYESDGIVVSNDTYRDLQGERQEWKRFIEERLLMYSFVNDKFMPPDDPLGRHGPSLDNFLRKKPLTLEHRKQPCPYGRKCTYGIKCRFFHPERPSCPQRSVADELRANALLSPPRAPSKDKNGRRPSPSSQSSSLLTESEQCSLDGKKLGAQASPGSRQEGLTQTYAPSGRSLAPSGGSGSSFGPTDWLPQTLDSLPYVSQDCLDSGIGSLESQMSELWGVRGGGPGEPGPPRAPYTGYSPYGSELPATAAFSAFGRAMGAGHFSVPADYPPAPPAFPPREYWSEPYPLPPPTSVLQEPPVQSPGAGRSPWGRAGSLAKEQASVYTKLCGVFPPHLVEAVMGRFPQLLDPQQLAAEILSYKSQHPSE

T2: C-terminal domain-deleted human Regnase-1 (amino acids 1 to 546) with N-terminal FLAG tag and C-terminal BirA … (human, UniProt Q5D1E8 1-546)
T2 sequence: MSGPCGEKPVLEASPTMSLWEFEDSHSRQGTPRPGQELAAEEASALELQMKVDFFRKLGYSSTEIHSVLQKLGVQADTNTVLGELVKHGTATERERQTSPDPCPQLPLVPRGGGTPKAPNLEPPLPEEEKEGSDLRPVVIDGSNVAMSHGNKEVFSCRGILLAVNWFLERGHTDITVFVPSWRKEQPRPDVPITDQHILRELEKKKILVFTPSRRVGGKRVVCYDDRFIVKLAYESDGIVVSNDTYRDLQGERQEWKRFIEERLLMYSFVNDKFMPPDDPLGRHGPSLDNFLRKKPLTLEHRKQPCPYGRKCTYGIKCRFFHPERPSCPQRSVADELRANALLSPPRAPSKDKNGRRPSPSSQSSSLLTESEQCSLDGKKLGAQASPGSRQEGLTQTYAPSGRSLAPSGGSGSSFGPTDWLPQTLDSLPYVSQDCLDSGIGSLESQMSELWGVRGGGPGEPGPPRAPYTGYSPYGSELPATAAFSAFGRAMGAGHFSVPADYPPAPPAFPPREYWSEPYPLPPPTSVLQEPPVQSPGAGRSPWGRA

T3: C-terminal human Regnase-1 (amino acids 301 to 599) with N-terminal FLAG tag and C-terminal BirA recognition … (human, UniProt Q5D1E8 301-599)
T3 sequence: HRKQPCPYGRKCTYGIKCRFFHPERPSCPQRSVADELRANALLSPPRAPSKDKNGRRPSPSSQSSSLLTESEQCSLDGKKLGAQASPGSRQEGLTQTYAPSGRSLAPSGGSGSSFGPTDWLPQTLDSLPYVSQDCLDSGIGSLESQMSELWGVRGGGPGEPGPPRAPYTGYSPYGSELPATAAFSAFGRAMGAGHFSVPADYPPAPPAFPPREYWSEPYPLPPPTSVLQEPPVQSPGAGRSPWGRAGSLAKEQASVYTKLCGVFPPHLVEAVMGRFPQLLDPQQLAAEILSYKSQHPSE

B1: PP21 (peptide)
peptide: XNSWYKIWGLD
HELM: PEPTIDE1{[meA].N.S.W.Y.K.I.W.G.L.D.[C1CCN([*:1])C1]}$PEPTIDE1,PEPTIDE1,1:R1-11:R3$$$V2.0
SMILES: CC[C@H](C)[C@@H]1NC(=O)[C@H](CCCCN)NC(=O)[C@H](Cc2ccc(O)cc2)NC(=O)[C@H](Cc2c[nH]c3ccccc23)NC(=O)[C@H](CO)NC(=O)[C@H](CC(N)=O)NC(=O)[C@H](C)N(C)C(=O)C[C@@H](C(=O)N2CCCC2)NC(=O)[C@H](CC(C)C)NC(=O)CNC(=O)[C@H](Cc2c[nH]c3ccccc23)NC1=O
B2: PP22 (peptide)
peptide: XNSWYRIWGLD
HELM: PEPTIDE1{[meA].N.S.W.Y.R.I.W.G.L.D.[C1CCN([*:1])C1]}$PEPTIDE1,PEPTIDE1,1:R1-11:R3$$$V2.0
SMILES: CC[C@H](C)[C@@H]1NC(=O)[C@H](CCCNC(=N)N)NC(=O)[C@H](Cc2ccc(O)cc2)NC(=O)[C@H](Cc2c[nH]c3ccccc23)NC(=O)[C@H](CO)NC(=O)[C@H](CC(N)=O)NC(=O)[C@H](C)N(C)C(=O)C[C@@H](C(=O)N2CCCC2)NC(=O)[C@H](CC(C)C)NC(=O)CNC(=O)[C@H](Cc2c[nH]c3ccccc23)NC1=O
B3: PP24 (peptide)
peptide: XWIWDFWNED
HELM: PEPTIDE1{[meA].W.I.W.D.F.W.N.E.D.[C1CCN([*:1])C1]}$PEPTIDE1,PEPTIDE1,1:R1-10:R3$$$V2.0
SMILES: CC[C@H](C)[C@@H]1NC(=O)[C@H](Cc2c[nH]c3ccccc23)NC(=O)[C@H](C)N(C)C(=O)C[C@@H](C(=O)N2CCCC2)NC(=O)[C@H](CCC(=O)O)NC(=O)[C@H](CC(N)=O)NC(=O)[C@H](Cc2c[nH]c3ccccc23)NC(=O)[C@H](Cc2ccccc2)NC(=O)[C@H](CC(=O)O)NC(=O)[C@H](Cc2c[nH]c3ccccc23)NC1=O

molecular target: T1, full-length human Regnase-1 with a FLAG …; test: cell-based or functional assay

| Binder | 50% inhibition concentration, Regnase-1 phosphorylation by IKKβ (AlphaScreen) [µM] |
| --- | --- |
| B1 | 19.6 |
| B2 | 15 |
| [dNMeA]PTSSWYKIWD-Pyrrolidide (lactam N-11) [PP23] | 25.6 |
| B3 | 5.3 |
| [dNMeA]EDTPEDDHD-Pyrrolidide (lactam N-10) [PP25] | 27 |

molecular target: T2, C-terminal domain-deleted human …; test: cell-based or functional assay

| Binder | 50% inhibition concentration, Regnase-1 phosphorylation by IKKβ (AlphaScreen) [µM] |
| --- | --- |
| B1 | 39.3 |
| B2 | 34 |
| [dNMeA]PTSSWYKIWD-Pyrrolidide (lactam N-11) [PP23] | > 62.1 |
| B3 | 4 |
| [dNMeA]EDTPEDDHD-Pyrrolidide (lactam N-10) [PP25] | 47.7 |

molecular target: T3, C-terminal human Regnase-1 (amino acids …); test: cell-based or functional assay

| Binder | 50% inhibition concentration, Regnase-1 phosphorylation by IKKβ (AlphaScreen) [µM] |
| --- | --- |
| B1 | 37.2 |
| B2 | 31 |
| [dNMeA]PTSSWYKIWD-Pyrrolidide (lactam N-11) [PP23] | > 62.1 |
| B3 | 7.2 |
| [dNMeA]EDTPEDDHD-Pyrrolidide (lactam N-10) [PP25] | 27.6 |

molecular target: T1, full-length human Regnase-1 with a FLAG …; test: cell-based or functional assay; remark: another data set of the same source

| Binder | 50% inhibition concentration, Regnase-1 phosphorylation by TBK1 (AlphaScreen) [µM] |
| --- | --- |
| B1 | 13.5 |
| B2 | 24.3 |
| [dNMeA]PTSSWYKIWD-Pyrrolidide (lactam N-11) [PP23] | 18.8 |
| B3 | 35.7 |
| [dNMeA]EDTPEDDHD-Pyrrolidide (lactam N-10) [PP25] | 18.9 |

molecular target: T2, C-terminal domain-deleted human …; test: cell-based or functional assay; remark: another data set of the same source

| Binder | 50% inhibition concentration, Regnase-1 phosphorylation by TBK1 (AlphaScreen) [µM] |
| --- | --- |
| B1 | 11.7 |
| B2 | 22.8 |
| [dNMeA]PTSSWYKIWD-Pyrrolidide (lactam N-11) [PP23] | 29.7 |
| B3 | 27.3 |
| [dNMeA]EDTPEDDHD-Pyrrolidide (lactam N-10) [PP25] | 16.1 |

molecular target: T3, C-terminal human Regnase-1 (amino acids …); test: cell-based or functional assay; remark: another data set of the same source

| Binder | 50% inhibition concentration, Regnase-1 phosphorylation by TBK1 (AlphaScreen) [µM] |
| --- | --- |
| B1 | 17 |
| B2 | 25.8 |
| [dNMeA]PTSSWYKIWD-Pyrrolidide (lactam N-11) [PP23] | 30.7 |
| B3 | 34.8 |
| [dNMeA]EDTPEDDHD-Pyrrolidide (lactam N-10) [PP25] | 16.3 |
